Where two headings read alike, the source gives them in different places. Ends that are not written are not given here.
T1: human LGR7 (human, UniProt Q9HBX9 1-757)
T1 sequence (looked up): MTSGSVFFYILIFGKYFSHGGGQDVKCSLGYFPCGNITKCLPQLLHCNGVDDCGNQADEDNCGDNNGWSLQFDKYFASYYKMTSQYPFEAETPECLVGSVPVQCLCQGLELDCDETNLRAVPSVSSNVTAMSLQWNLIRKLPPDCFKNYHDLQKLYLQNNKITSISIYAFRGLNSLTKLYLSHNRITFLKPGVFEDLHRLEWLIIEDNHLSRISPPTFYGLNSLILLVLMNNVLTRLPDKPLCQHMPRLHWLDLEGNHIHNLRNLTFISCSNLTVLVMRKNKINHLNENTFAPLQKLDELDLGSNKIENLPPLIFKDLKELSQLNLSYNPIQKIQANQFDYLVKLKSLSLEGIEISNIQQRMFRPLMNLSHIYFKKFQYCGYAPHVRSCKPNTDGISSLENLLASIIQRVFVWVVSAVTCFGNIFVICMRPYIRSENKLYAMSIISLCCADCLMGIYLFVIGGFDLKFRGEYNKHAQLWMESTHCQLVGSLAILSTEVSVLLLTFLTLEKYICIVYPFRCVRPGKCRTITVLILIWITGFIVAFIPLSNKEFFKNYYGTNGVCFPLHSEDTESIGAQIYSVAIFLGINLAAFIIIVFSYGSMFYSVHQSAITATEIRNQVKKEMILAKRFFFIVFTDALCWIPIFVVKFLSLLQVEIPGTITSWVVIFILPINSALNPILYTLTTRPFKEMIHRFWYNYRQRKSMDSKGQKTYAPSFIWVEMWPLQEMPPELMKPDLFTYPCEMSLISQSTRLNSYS

T2: human GPCR135 (human, UniProt Q9NSD7 1-469)
T2 sequence: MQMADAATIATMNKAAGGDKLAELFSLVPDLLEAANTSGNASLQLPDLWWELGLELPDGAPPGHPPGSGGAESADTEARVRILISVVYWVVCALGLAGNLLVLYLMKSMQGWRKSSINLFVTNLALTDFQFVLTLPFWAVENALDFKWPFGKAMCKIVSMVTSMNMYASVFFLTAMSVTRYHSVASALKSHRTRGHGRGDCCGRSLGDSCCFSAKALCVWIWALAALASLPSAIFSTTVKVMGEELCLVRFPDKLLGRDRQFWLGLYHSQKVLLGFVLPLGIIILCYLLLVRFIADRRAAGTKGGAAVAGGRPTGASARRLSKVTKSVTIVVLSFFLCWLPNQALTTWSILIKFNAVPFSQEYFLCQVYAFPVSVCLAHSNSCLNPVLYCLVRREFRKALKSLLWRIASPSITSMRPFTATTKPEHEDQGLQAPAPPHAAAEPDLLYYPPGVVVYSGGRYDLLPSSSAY

B1: human relaxin-3/relaxin-1 chimeric polypeptide (R3/R1), mature (ligand)
chain: RAAPYGVRLCGREFIRAVIFTCGGSRWPYVALFEKCCLIGCTKRSLAKYC
modifications: disulfide (positions not given here); also: two chains (relaxin-3 B-chain, relaxin-1 A-chain), disulfide-linked, chain break not marked
notes: Mature two-chain peptide: human relaxin-3 B-chain disulfide-linked to human relaxin-1 A-chain; Made in COS-7 cells with furin; the FLAG tag was removed with enterokinase
B2: human relaxin-3/relaxin-2 chimeric polypeptide (R3/R2), mature (ligand)
chain: RAAPYGVRLCGREFIRAVIFTCGGSRWQLYSALANKCCHVGCTKRSLARFC
modifications: disulfide (positions not given here); also: two-chain peptide (relaxin-3 B chain, relaxin-2 A chain), disulfide-linked, places not given here
notes: Mature two-chain peptide: human relaxin-3 B-chain disulfide-linked to human relaxin-2 A-chain; FLAG tag removed
B3: human relaxin-3/INSL3 chimeric polypeptide (R3/I3), mature (ligand)
chain: RAAPYGVRLCGREFIRAVIFTCGGSRWNPARYCCLSGCTQQDLLTLC
modifications: disulfide (positions not given here); also: two chains (relaxin-3 B-chain, INSL3 A-chain), disulfide-linked, chain break not marked
notes: Mature two-chain peptide: human relaxin-3 B-chain disulfide-linked to human INSL3 A-chain; FLAG tag removed
B4: human relaxin-3/INSL6 chimeric polypeptide (R3/I6), mature (ligand)
chain: RAAPYGVRLCGREFIRAVIFTCGGSRWGYSEKCCLTGCTKEELSIAC
modifications: disulfide (positions not given here); also: two chains (relaxin-3 B-chain, INSL6 A-chain), disulfide-linked, chain break not marked
notes: Mature two-chain peptide: human relaxin-3 B-chain disulfide-linked to human INSL6 A-chain; FLAG tag removed
B5: human INSL3 (ligand)
chain: PTPEMREKLCGHHFVRALVRVCGGPRWSTEANPARYCCLSGCTQQDLLTLC
modifications: ends and bridges not checked; also: 125I-labelled form used as tracer, site not given here

Tests used:
[1] = molecular target: T3, human LGR8 (human, UniProt Q8WXD0 1-754); assay: cell-based or functional assay
[2] = molecular target: T1, human LGR7; assay: cell-based or functional assay
[3] = molecular target: T4, human GPCR142 (human, UniProt Q8TDU9 1-374); assay: cell-based or functional assay
[4] = molecular target: T2, human GPCR135; assay: cell-based or functional assay
[5] = molecular target: T1, human LGR7; assay: competition with [125I]-relaxin-3 (100 pM), live COS-7 cells with human LGR7
Experimental: (§1) Different unlabeled peptides were used in the binding assay as the competitors. […] Data represent mean±SEM (n=3).
(§2) Radioligand binding assays for LGR7 and LGR8 were performed using live COS-7 cells transiently transfected with LGR7 or LGR8 expression plasmids in 15-cm culture dishes using LipofectAmine (Invitrogen). Two days after transfection, the transfected cells were detached from the 15-cm culture dished using phosphate buffered saline (PBS) plus 10 mM EDTA, seeded into 96-well opaque poly-D-lysine coated culture plates and used for radioligand binding assays. […] [¹²⁵I]-labeled tracer was added in binding reactions at a final concentration of 100 pM in binding buffer containing DMEM plus 50 mM HEPES and 1% bovine serum albumin. […] The binding mixtures were incubated at room temperature for 1 hour. The unbound radioligand was removed by aspiration of the binding buffer. The cells were washed with PBS. The bound radioligand was counted in a scintillation counter (TopCount/NTX). The results were analyzed using Prism 3.0 program (Graphpad, San Diego, Calif.).

[6] = molecular target: T2, human GPCR135; assay: competition with [125I]-relaxin-3 (100 pM), COS-7 membranes with human GPCR135
Experimental: as §1
(§3) Peptides for competition binding studies were added to the binding mix (final volume: 200 μl) in binding buffer [50 mM Tris-HCl, pH 7.5, 5 mM EDTA, 1% bovine serum albumin, 0.1% protease inhibitor cocktails (Sigma)]. The binding mixtures were incubated at room temperature for 1 hour, filtered through GFC plates (Packard) pre-saturated with 0.3% Polyethylenimine (Sigma), and washed with cold washing buffer (50 mM Tris-HCl, pH 7.5, 5 mM EDTA).

[7] = molecular target: T4, human GPCR142; assay: competition with [125I]-relaxin-3 (100 pM), COS-7 membranes with human GPCR142
Experimental: as §1, §3

[8] = molecular target: T4, human GPCR142; assay: cell-based or functional assay; remark: listed apart in the source
[9] = molecular target: T2, human GPCR135; assay: cell-based or functional assay; remark: listed apart in the source
[10] = molecular target: T3, human LGR8; assay: cell-based or functional assay; remark: listed apart in the source
[11] = molecular target: T1, human LGR7; assay: cell-based or functional assay; remark: listed apart in the source
[12] = molecular target: T1, human LGR7; assay: cell-based or functional assay; remark: listed apart in the source
[13] = molecular target: T3, human LGR8; assay: competition with [125I]-INSL3 (100 pM), live COS-7 cells with human LGR8
Experimental: as §1, §2

[14] = molecular target: T3, human LGR8; assay: cell-based or functional assay; remark: listed apart in the source
[15] = molecular target: T3, human LGR8; assay: competition with [125I]-INSL3, live COS-7 cells with human LGR8; this end tied to R3/I3 by Table 1
Experimental: as §1, §2

[16] = molecular target: T1, human LGR7; assay: radioligand competition, live COS-7 cells with human LGR7
Experimental: as §1, §2

[17] = molecular target: T4, human GPCR142; assay: cell-based or functional assay; remark: listed apart in the source
[18] = molecular target: T2, human GPCR135; assay: cell-based or functional assay; remark: listed apart in the source
[19] = molecular target: T3, human LGR8; assay: competition with [125I]-INSL3 (100 pM) on live COS-7 cells expressing human LGR8; ND denotes no activity was detected
Experimental: as §1, §2

T3 sequence (Q8WXD0 whole entry): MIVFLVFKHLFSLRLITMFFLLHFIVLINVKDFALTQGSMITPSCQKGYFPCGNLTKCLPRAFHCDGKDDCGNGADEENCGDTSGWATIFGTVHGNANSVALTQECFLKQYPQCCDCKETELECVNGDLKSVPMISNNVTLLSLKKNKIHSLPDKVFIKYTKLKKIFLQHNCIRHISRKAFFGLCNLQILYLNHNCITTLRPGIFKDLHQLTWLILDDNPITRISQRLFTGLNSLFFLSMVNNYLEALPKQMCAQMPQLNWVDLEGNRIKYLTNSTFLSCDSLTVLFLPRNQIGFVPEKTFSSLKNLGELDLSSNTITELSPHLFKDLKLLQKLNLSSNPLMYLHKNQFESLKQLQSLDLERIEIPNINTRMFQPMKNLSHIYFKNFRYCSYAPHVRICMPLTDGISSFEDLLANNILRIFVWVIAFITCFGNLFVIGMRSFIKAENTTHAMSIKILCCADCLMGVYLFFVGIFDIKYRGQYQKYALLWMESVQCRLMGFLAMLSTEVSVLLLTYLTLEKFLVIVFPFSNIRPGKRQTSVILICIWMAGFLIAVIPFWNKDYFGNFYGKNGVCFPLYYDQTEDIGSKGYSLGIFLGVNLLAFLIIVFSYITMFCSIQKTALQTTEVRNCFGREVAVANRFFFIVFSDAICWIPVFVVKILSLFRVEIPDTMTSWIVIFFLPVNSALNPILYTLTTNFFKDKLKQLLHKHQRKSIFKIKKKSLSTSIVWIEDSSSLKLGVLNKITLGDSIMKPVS
T4 sequence (Q8TDU9 whole entry L329S): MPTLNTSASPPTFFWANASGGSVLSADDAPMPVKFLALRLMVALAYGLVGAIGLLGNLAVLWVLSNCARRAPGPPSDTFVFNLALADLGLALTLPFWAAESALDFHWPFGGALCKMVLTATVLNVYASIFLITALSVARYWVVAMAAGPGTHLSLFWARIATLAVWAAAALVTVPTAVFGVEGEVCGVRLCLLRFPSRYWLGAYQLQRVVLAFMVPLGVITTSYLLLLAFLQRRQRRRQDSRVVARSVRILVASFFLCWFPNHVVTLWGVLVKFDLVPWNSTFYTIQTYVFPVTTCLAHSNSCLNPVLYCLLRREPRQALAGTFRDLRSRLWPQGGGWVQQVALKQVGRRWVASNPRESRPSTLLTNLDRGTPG

Molecule	IC50 [5]	IC50 [6]	IC50 [7]	EC50, inhibition of forskolin stimulated β-galactosidase expression [8]	EC50, inhibition of forskolin stimulated β-galactosidase expression [9]	EC50, ligand stimulated β-galactosidase expression [10]	EC50, ligand stimulated β-galactosidase expression [11]	EC50, ligand stimulated β-galactosidase expression [12]	IC50 [13]	also measured
porcine relaxin (from UniProt P01348 25-182) (ligand)	–	–	–	–	–	–	–	–	–	EC50, induction of β-galactosidase activity [1]: 1.5 nM; EC50, stimulation of β-galactosidase activity [2]: 0.25 nM
human relaxin-3 B-chain (from UniProt Q8WXF3 26-52) (peptide)	–	–	–	–	–	–	–	–	–	EC50, inhibition of forskolin-stimulated β-galactosidase activity [3]: 125 nM; EC50, inhibition of forskolin-stimulated β-galactosidase activity [4]: 88 nM
B1	5.1 nM	2.9 nM	2.6 nM	2.2 nM	1.8 nM	> 1000 nM	4.5 nM	1 to 5 nM	> 1000 nM	–
B2	1.5 nM	1.2 nM	1.8 nM	1.4 nM	1.1 nM	575 nM	1.1 nM	1 to 5 nM	615 nM	EC50, ligand stimulated β-galactosidase expression [14]: ~600 nM
B3	2.3 nM	2.3 nM	3.5 nM	2.9 nM	2.2 nM	258 nM	2.5 nM	–	475 nM	IC50 [15]: 500 nM; EC50, ligand stimulated β-galactosidase expression [14]: ~300 nM
B4	12.9 nM	9.5 nM	11.3 nM	11.2 nM	8.4 nM	–	13.7 nM	10 nM	–	IC50 [16]: 15 nM; EC50, inhibition of forskolin stimulated β-galactosidase expression [17]: ~10 nM; EC50, inhibition of forskolin stimulated β-galactosidase expression [18]: ~10 nM; binding result [19]: no binding
B5	–	–	–	–	–	–	–	–	–	EC50, induction of β-galactosidase activity [14]: 0.16 nM
